Measurements reported in the RNAGym collection of RNA variant scans (doi:10.1101/gr.219683.116).

B1: mRNA-splicing (parent)
chain: AGUUGCUGCUGGGAGCUCCAGCACAGUGAAAUGGACAGAAGGGCAGAGCAA

Variants of: B1
Test: exon inclusion enrichment index; higher = more inclusion; WT1 exon 5 minigene, HEK293

| Variant | exon inclusion enrichment index |
| --- | --- |
| G5U G8U C9U G26U U27C | 0.729 |
| G5U G8U C9U G26U U27A | 0.0473 |
| G5U G8U C9U G26U U27G | 0.458 |
| G5U G8U C9U A40G | 0.0867 |
| G5U G8U C9U A40C | 0.385 |
| G5U G8U C9U A40U | 0.0931 |
| G5U G8U C9U C19G A20U | 0.14 |
| G5U G8U C9U C19G A20C | 0.13 |
| G5U G8U C9U C19G A20G | 0.0362 |
| G5U G8U C9U G43A | 0.671 |
| G5U G8U C9U A30C A31G | 0.406 |
| G5U G8U C9U A30C A31C | 0.347 |
| G5U G8U C9U A30C A31U | 0.139 |
| G5U G8U C9U A37U G38U | 0.0252 |
| G5U G8U C9U A37U G38A | 0.0389 |
| G5U G8U C9U A37U G38C | 0.0749 |
| G5U G8U C9U C36A A37G | 0.0549 |
| G5U G8U C9U C36A A37C | 0.21 |
| G5U G8U C9U C36A A37U | 0.0263 |
| G5U G8U C9U C36U A37G | 0.114 |
| G5U G8U C9U C36U A37C | 0.0658 |

| Variant | exon inclusion enrichment index |
| --- | --- |
| G5U G8U C9U C36U A37U | 0.081 |
| G5U G8U C9U C22U A23G | 0.109 |
| G5U G8U C9U C22U A23U | 0.0443 |
| G5U G8U C9U C22U A23C | 0.0522 |
| G5U G8U C9U G42C G43A | 0.494 |
| G5U G8U C9U G42C G43U | 0.515 |
| G5U G8U C9U G42C G43C | 0.708 |
| G5U G8U C9U G11C G12A | 0.0135 |
| G5U G8U C9U G11C G12C | 0.0331 |
| G5U G8U C9U G11C G12U | 0.0163 |
| G5U G8U C9U G42A | 0.667 |
| G5U G8U C9U G42U | 0.227 |
| G5U G8U C9U G42C | 0.786 |
| G5U G8U C9U G28U A29C | 0.0643 |
| G5U G8U C9U G28U A29U | 0.0195 |
| G5U G8U C9U G28U A29G | 0.118 |
| G5U G8U C9U A29U | 0.0318 |
| G5U G8U C9U A29G | 0.246 |
| G5U G8U C9U G43A C44A | 0.667 |
| G5U G8U C9U G41A G42U | 0.115 |
| G5U G8U C9U G41A G42C | 0.348 |

| Variant | exon inclusion enrichment index |
| --- | --- |
| G5U G8U C9U G41A G42A | 0.107 |
| G5U G8U C9U G11A | 0.0224 |
| G5U G8U C9U G11U | 0.144 |
| G5U G8U C9U G11C | 0.297 |
| G5U G8U C9U A47G G48C | 0.0267 |
| G5U G8U C9U A47G G48U | 0.00268 |
| G5U G8U C9U A47G G48A | 0.0435 |
| G5U G8U C9U A31G U32C | 0.678 |
| G5U G8U C9U A31G U32A | 1.22 |
| G5U G8U C9U A31G U32G | 0.0767 |
| G5U G8U C9U A35U C36U | 0.000565 |
| G5U G8U C9U A35U C36G | 0.0125 |
| G5U G8U C9U A35U C36A | 0.00069 |
| G5U G8U C9U G13U A14G | 0.0118 |
| G5U G8U C9U G13U A14U | 0.0249 |
| G5U G8U C9U G13U A14C | 0.0727 |
| G5U G8U C9U A40C G41C | 0.711 |
| G5U G8U C9U A40C G41U | 0.079 |
| G5U G8U C9U A40C G41A | 0.0439 |
| G5U G8U C9U G13A A14U | 0.349 |
| G5U G8U C9U G13A A14G | 0.152 |

| Variant | exon inclusion enrichment index |
| --- | --- |
| G5U G8U C9U G13A A14C | 0.61 |
| G5U G8U C9U G42U G43C | 0.0971 |
| G5U G8U C9U G42U G43A | 0.451 |
| G5U G8U C9U G42U G43U | 0.409 |
| G5U G8U C9U C24G A25C | 0.663 |
| G5U G8U C9U C24G A25G | 0.0358 |
| G5U G8U C9U C24G A25U | 0.208 |
| G5U G8U C9U G26U | 0.161 |
| G5U G8U C9U G26A | 0.201 |
| G5U G8U C9U G26C | 0.177 |
| G5U G8U C9U C44U | 0.0292 |
| G5U G8U C9U C44A | 0.454 |
| G5U G8U C9U C44G | 0.278 |
| G5U G8U C9U A45G G46C | 0.262 |
| G5U G8U C9U A45G G46A | 0.672 |
| G5U G8U C9U A45G G46U | 0.0933 |
| G5U G8U C9U C16G | 0.0374 |
| G5U G8U C9U C16A | 0.141 |
| G5U G8U C9U C16U | 0.128 |
| G5U G8U C9U A40G G41U | 0.107 |
